Data from paper PMC6298778, “A secretory pathway kinase regulates sarcoplasmic reticulum Ca^2+ homeostasis and protects against heart failure” (eLife, 2018).

B1: calsequestrin 2 (CSQ2), phosphorylated in vitro by Fam20C, His-tagged (natural protein, human, UniProt O14958 19-399, looked up)
chain: AEEGLNFPTYDGKDRVVSLSEKNFKQVLKKYDLLCLYYHEPVSSDKVTQKQFQLKEIVLELVAQVLEHKAIGFVMVDAKKEAKLAKKLGFDEEGSLYILKGDRTIEFDGEFAADVLVEFLLDLIEDPVEIISSKLEVQAFERIEDYIKLIGFFKSEDSEYYKAFEEAAEHFQPYIKFFATFDKGVAKKLSLKMNEVDFYEPFMDEPIAIPNKPYTEEELVEFVKEHQRPTLRRLRPEEMFETWEDDLNGIHIVAFAEKSDPDGYEFLEILKQVARDNTDNPDLSILWIDPDDFPLLVAYWEKTFKIDLFRPQIGVVNVTDADSVWMEIPDDDDLPTAEELEDWIEDVLSGKINTEDDDEDDDDDDNSDEEDNDDSDDDDDE
modifications: phosphoserine at 385 (phosphorylated in vitro by Fam20C; saturated phosphorylation >95%)
notes: also called phosphorylated CSQ2; phosphorylated His-CASQ2; source: E. coli BL21 (DE3)-RILP, purified (Ni-NTA), phosphorylated in vitro by Fam20C, then size exclusion chromatography; not shown: His6, C-terminal, kept
B2: calsequestrin 2 (CSQ2), unphosphorylated, His-tagged (natural protein, human, UniProt O14958 19-399, looked up)
chain: B1 chain
notes: Control sample of the turbidity assay: same treatment as the phosphorylated protein but without Fam20C; also called CASQ2; His-CASQ2; source: E. coli BL21 (DE3)-RILP, purified (Ni-NTA, size exclusion chromatography); treated in tandem without Fam20C; not shown: His6, C-terminal, kept

Key:
[1] = target: calsequestrin 2 (CSQ2, CASQ2) 19-399 (UniProt O14958); assay: Ca2+-dependent turbidity, absorbance at 350 nm; details: reference: CSQ2 treated in tandem without Fam20C; sites S385
[2] = target: the molecule itself; assay: turbidity assay; 4.5 uM phosphorylated or unphosphorylated His-CASQ2, 10 mM Tris-HCl pH 7.0, 10% glycerol, CaCl2 at the concentrations indicated; 30 min at room temperature; absorbance at 350 nm

| Molecule | binding against the reference [1] | binding result [2] |
| --- | --- | --- |
| calsequestrin 2 (CSQ2, CASQ2) 19-399 (from UniProt O14958) CSQ2 phosphorylated in vitro by Fam20C | stronger |  |
| B1 |  | binds |
| B2 |  | binds |
